Test results from the RNAGym collection of RNA variant scans (doi:10.1073/pnas.2313332121).
Variants at the floor of the assay were thinned out.

B1: TPR 5TU (parent)
chain: GGAUCUUCUCGAUCUAACAAAAAAGACAAAUCUGCCACAAAGCUUGAGAGCAUCUUCGGAUGCAGAGGCGGCAGCCUUCGGUGGCGCGAUAGCGCCAACGUUCUCAACUAUGACACGCAAAACGCGUGCUCCGUUGAAUGGAGUUUAUCAUG

Variants of: B1
Assay: polymerase ribozyme fitness, log enrichment relative to wild type (log ratio); higher = more active; in vitro selection for triplet polymerase activity
Outline: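 Only genotypes with ≥10 input reads and ≥1 read per output were kept after Illumina sequencing of input and output libraries. These libraries were PCR-built, transcribed mutants of each subunit of a heterodimeric triplet polymerase ribozyme, each put through one triplicate in vitro selection round with frozen incubation at −7 °C, gel excision of extended constructs, streptavidin-bead capture and RT-PCR. Fitness is a logarithmic ratio of genotype enrichment to wild-type enrichment, from inverse-variance-weighted replicate averages, with the logarithm in base 2.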

Row | Variant | polymerase ribozyme fitness (log ratio)
1 | C38A G70A C85G U127C | ≤ -4.2
2 | C38G C85G C105U A121U G124A | -2.25
3 | A37C U45A C79U A97U U144A | ≤ -4.2
4 | C36U C87A G117U | ≤ -4.2
5 | A39G A41G G46C C51G U56A A60C C72U A97G U111C C125A | ≤ -4.2
6 | A37C A52U C132U | -4.13
7 | C38U A73U C93U A107U G117U | ≤ -4.2
8 | C38U C57A C87A | ≤ -4.2
9 | C38U G81A C87G C95U C96A A97G A138C G141U | ≤ -4.2
10 | A39G A41G A73G G86C G92U | ≤ -4.2
11 | A37C C72G C79A | ≤ -4.2
12 | A37C U56A C85A C99G A107G G124A | ≤ -4.2
13 | C38U A49C A60C U82G G83A | ≤ -4.2
14 | A39U G80A C123G | -2.65
15 | A37C C51U G58C C95G C118A | -3.66
16 | A37U U146G | -2.19
17 | C38A A89G C95G G124A | -2.76
18 | C38G A49U U55A C87A G126A G143C | ≤ -4.2
19 | C38G U55A C96A A150G | -2.63
20 | C36U C93A G117U | -3.25
21 | A37C A41U G48U A73U C93G C99U G140A | ≤ -4.2
22 | A39U G62A | -2.58
23 | C38G C51U C95A C99G A106U C125A U134A | ≤ -4.2
24 | C38G A41U C79U G92C C123A | ≤ -4.2

Row | Variant | polymerase ribozyme fitness (log ratio)
25 | C38U A47G U53A G141C | -2.86
26 | C38A G50U | -0.722
27 | C38A G83A | -0.746
28 | A37U U44A G86C | ≤ -4.2
29 | C36U G62A A91C C96G A113U | ≤ -4.2
30 | A37G C38G G83U C118A C123U | -4.05
31 | A39C A91C A137G | ≤ -4.2
32 | C38G G68C C85G G126A U139G G140A C149G | ≤ -4.2
33 | A37C G50U A52C U90C G94C C116U | ≤ -4.2
34 | A39U A47G U139G U151G | ≤ -4.2
35 | A37G A60U G81A A97C A137G | -4.19
36 | C38U G42C A52U U61G G133U | ≤ -4.2
37 | C36U G58A A119G G140A | -4.18
38 | C38A C95A U135A | -1.76
39 | A39U C43U U61A U135G G136A | ≤ -4.2
40 | A39C G48C G88U A97G U144G | ≤ -4.2
41 | C38U C85U A107U C125G A147C | ≤ -4.2
42 | A37G A41G C79A G92U C95U C123U | ≤ -4.2
43 | C38A C76G G92C | ≤ -4.2
44 | C38U G70A | -2.9
45 | A39C A40G G50C C75A C85G | ≤ -4.2
46 | C36U C93U C96G C114G C116A A138C U139G U148C G152A | -4.1
47 | C38G U45G U56A C93G C123A U127G | ≤ -4.2
48 | A39U C93U | -3.36

Row | Variant | polymerase ribozyme fitness (log ratio)
49 | C36U C87U G143C | -3.81
50 | C38A G94A | -0.134
51 | A37G A60G C87U | -1.88
52 | A37G U56A A97G | -2.85
53 | A37G C93G A97C C116A | ≤ -4.2
54 | A37G C85U G88C C95U | ≤ -4.2
55 | A39G C87U | -2.33
56 | C38U G84A U139A | ≤ -4.2
57 | A39G A41C | -1.44
58 | C38U C63G A97U G143C | -3.67
59 | A39G G50A G81C U82C G92C G140A U151C G152C | ≤ -4.2
60 | C38U C85G | -3.44
61 | A39C G58C A97U A98C C125U | -3.95
62 | A39C C54G G58C G117U G124U U134C | ≤ -4.2
63 | C36U C87U | -1.6
64 | A37C C76A | -3.34
65 | C38U A73G U101A | -0.277
66 | C36U U56G A60C U61G C79U C93U C99U G112C U144A A150C | ≤ -4.2
67 | C38A U82A G84U A120C | -1.37
68 | C36U G42C U53A G59A U78A C87U | ≤ -4.2
69 | A39C G81A G94U A106G A110C G140U | -4.04
70 | A37C A39C C95U G133U | ≤ -4.2
71 | C38U G50A | -2.15
72 | C36U U55G C118G | -1.72

Row | Variant | polymerase ribozyme fitness (log ratio)
73 | C38A G58A C96G C129G G143A | -2.67
74 | C38U A47U A121U U135A A142U | -2.42
75 | C36U G46A A64G G80C | ≤ -4.2
76 | C38A A91G | -3.39
77 | C36U C51G A107U G128A U139G | ≤ -4.2
78 | C38U G62C G94U | -3.3
79 | A37G C93U C116G | -2.65
80 | C38U G70A C95A C99U A107U | ≤ -4.2
81 | C38G G50C G65U G84A C96U C99U U111G G143A | ≤ -4.2
82 | C38U G83C C132A | ≤ -4.2
83 | C36U U56A C76U G86A A115C | -3.51
84 | A37G C123U | -1.8
85 | A37C U127G | -3.83
86 | C38U U134G | -2.53
87 | C38U A52G G70U C85U G117U | -3.27
88 | C38A C85A | -2.61
89 | A37G G67A C79G | ≤ -4.2
90 | C38U C51U C76A C79A A97U G100A C103G A106G A120G | ≤ -4.2
91 | A37C U56A | -0.806
92 | A37G C51G A52G U53A A89C G136C A138U | ≤ -4.2
93 | A39U A97U A119C | -3.36
94 | A39G C96U C125A | -2.58
95 | C38A G83U C96G U144A | -0.619
96 | C38U C57A G74U G83C | ≤ -4.2

Row | Variant | polymerase ribozyme fitness (log ratio)
97 | C38G C51U | -0.547
98 | A39U A52G U61A A73U A115U A150C | ≤ -4.2
99 | C38G A98U A122C G141C | -2.06
100 | C38U A73U C87U C96A A122G U145A | -2.54
101 | A39U C54U C87A C99A G133U | ≤ -4.2
102 | A39U A60U G70A | ≤ -4.2
103 | A39C G84A C85G U90G A91G U111A | ≤ -4.2
104 | A39G C85U U101C | -2.58
105 | A37U U55A A91G A98U U148A | ≤ -4.2
106 | A39G A40G A41U G58A G59U U61A C79A U144A G152C | ≤ -4.2
107 | C38G G74C C87U | ≤ -4.2
108 | A39U A49C U55A C87U C116G | ≤ -4.2
109 | C38U A66G G92U C108A G136U | ≤ -4.2
110 | C38A C76A A97G U134G | -3.3
111 | A39G G48A U56A C76A C79U C105U | ≤ -4.2
112 | C38U C85U U146G | -0.571
113 | A39C G80A A97U G126U U144A | ≤ -4.2
114 | C36U C85U G124C | -2.46
115 | A39G G84U U127A | ≤ -4.2
116 | A39U G83C | -2.01
117 | A37C A97G | 0.477
118 | C38U G59A A60C | -1.48
119 | C38A A49C G67A C79G | ≤ -4.2
120 | C38U G84U A91U | ≤ -4.2

Row | Variant | polymerase ribozyme fitness (log ratio)
121 | A39G A91G | -3.4
122 | A39C G50C G59C A97U C129A C149U | ≤ -4.2
123 | A39U C63U C75G C76A C87G C105U C129U G143C | ≤ -4.2
124 | A39U U44G U109C | ≤ -4.2
125 | C36U A91U | ≤ -4.2
126 | C38U C93U | -1.06
127 | A39C C149U | -2.97
128 | A37G C131U U134C | -1.56
129 | C38U A40G | -2.26
130 | C38U U45G U55A A60U G71A | ≤ -4.2
131 | A37U A49U U55A U56A U127A | ≤ -4.2
132 | A39C A49G | -3.48
133 | C38A U56A G128U | -3.69
134 | A39G U55C U56A C116U U139G U144G | -2.27
135 | A37U G70C C85U G92A | ≤ -4.2
136 | A37C A49C G124A U130G | ≤ -4.2
137 | A39U A60U U146A | -3.58
138 | A37C C38U G71A U109G C123G | ≤ -4.2
139 | A37C G58A C87A U101G G124C A150U | ≤ -4.2
140 | C38U G94A | -0.383
141 | A37U C54A C96G | -3.53
142 | A39G A47G G83A A142G | ≤ -4.2
143 | A39C C87U G94U U101C A147U | ≤ -4.2
144 | A37G U61G C93U A115C | -4.18

Row | Variant | polymerase ribozyme fitness (log ratio)
145 | A39C A64G C75G C85U G124A | ≤ -4.2
146 | A37G C87U | -2.16
147 | A37C G70U C96G | ≤ -4.2
148 | A39C C76G A137C | ≤ -4.2
149 | A37C C38U U53A A91G | -3.98
150 | C38U G48A A60C C72G C96A C99U C114G U139G U148G | ≤ -4.2
151 | C38U C149U A150U | -1.23
152 | C38U U101G U135A | -0.00114
153 | A37G G81C A142C | -3.82
154 | A39C U44C C93U C108G A121C U139G | ≤ -4.2
155 | A37G U145G | -2.35
156 | A37C C54G G92U A97U A119U | ≤ -4.2
157 | A37C A41U C93U C118A | -2.93
158 | C38U U53A U61A | -1.44
159 | C38U C105U C118G U139G | -1.24
160 | A39G G50C G65C A110G A120G | ≤ -4.2
161 | A37C A40G A52U A60G G70C G86U A119C | ≤ -4.2
162 | A37C U55A | 0.0873
163 | C38U U55A | -0.159
164 | A37U G94A U104G | -2.92
165 | A37U C79U C116A | -4.15
166 | A39G C103G U144A | ≤ -4.2
167 | A39C C93U | -3.4
